{"source": "paper PMC9412104", "about": "“Biochemical and Structural Insights on the Poplar Tau Glutathione Transferase GSTU19 and 20 Paralogs Binding Flavonoids” (Frontiers in Molecular Biosciences, 2022)", "key": {"[1]": {"biological_target": "Populus trichocarpa tau glutathione transferase GSTU19 (PtGSTU19) (Populus trichocarpa)", "assay": "SEC-MALS; purified untagged recombinant protein; conditions not told in the text shown (Supplementary Figure S3B)"}, "[2]": {"biological_target": "Populus trichocarpa tau glutathione transferase GSTU20 (PtGSTU20) (Populus trichocarpa)", "assay": "SEC-MALS; purified untagged recombinant protein; conditions not told in the text shown (Supplementary Figure S3B)"}, "CCCCCC(O)C=CC=O": {"system": "CCCCCC(O)C=CC=O", "assay": "purified protein, by the assay type", "settings": "pH 8.0; 25.0 °C"}, "[3]": {"system": "CCCC(=O)Oc1ccc([N+](=O)[O-])cc1", "assay": "purified protein, by the assay type", "settings": "pH 8.0"}, "S=C=NCc1ccccc1": {"system": "S=C=NCc1ccccc1", "assay": "purified protein, by the assay type", "settings": "pH 8.0"}, "S=C=NCCc1ccccc1": {"system": "S=C=NCCc1ccccc1", "assay": "purified protein, by the assay type", "settings": "pH 8.0; 25.0 °C"}, "[4]": {"system": "CCCC(=O)Oc1ccc([N+](=O)[O-])cc1", "assay": "GSH-conjugation activity toward model substrates, variant", "assay_type": "biochemical, Populus trichocarpa", "settings": "mean ± S.D., n = 3, pH 8.0", "method": "Peroxidase activity toward hydroperoxides was measured using an NADPH coupled spectrophotometric assay ([Pégeot et al., 2014]).\nThe measured velocities were corrected by subtracting the rate of the spontaneous nonenzymatic reaction, and three independent experiments were performed at each substrate concentration."}, "[5]": {"settings": "other: PtGSTU19 Y160A, fixed saturating GSH"}, "[6]": {"settings": "other: PtGSTU19 Y160C, fixed saturating GSH"}, "[7]": {"settings": "other: PtGSTU19 Y160F, fixed saturating GSH"}, "[8]": {"settings": "other: line printed as PtGSTU19 C160Y in Table S4, fixed saturating GSH"}}, "data": [{"substance": "Populus trichocarpa tau glutathione transferase GSTU19 (PtGSTU19) (enzyme)", "values": [{"measurement": "stoichiometry N", "setting": "[1]", "result": 2}]}, {"substance": "Populus trichocarpa tau glutathione transferase GSTU20 (PtGSTU20) (enzyme)", "values": [{"measurement": "stoichiometry N", "setting": "[2]", "result": 2}]}, {"substance": "PtGSTU19 (Populus trichocarpa)", "values": [{"measurement": "Km", "setting": "CCCCCC(O)C=CC=O", "result": "56.4 ± 7.4", "unit": "µM"}, {"measurement": "kcat", "setting": "CCCCCC(O)C=CC=O", "result": 0.11, "unit": "s⁻¹"}, {"measurement": "kcat/Km", "setting": "CCCCCC(O)C=CC=O", "result": 2000, "unit": "M⁻¹ s⁻¹"}, {"measurement": "Km", "setting": "[3]", "result": "443.5 ± 31.1", "unit": "µM"}, {"measurement": "kcat", "setting": "[3]", "result": "0.04 ± 0.001", "unit": "s⁻¹"}, {"measurement": "kcat/Km", "setting": "[3]", "result": "100 ± 2", "unit": "M⁻¹ s⁻¹"}, {"measurement": "Km", "setting": "S=C=NCc1ccccc1", "result": "52.7 ± 3.6", "unit": "µM"}, {"measurement": "kcat", "setting": "S=C=NCc1ccccc1", "result": "7 ± 0.1", "unit": "s⁻¹"}, {"measurement": "kcat/Km", "setting": "S=C=NCc1ccccc1", "result": "132200 ± 200", "unit": "M⁻¹ s⁻¹"}, {"measurement": "Km", "setting": "S=C=NCCc1ccccc1", "result": "48.4 ± 2.5", "unit": "µM"}, {"measurement": "kcat", "setting": "S=C=NCCc1ccccc1", "result": 3.8, "unit": "s⁻¹"}, {"measurement": "kcat/Km", "setting": "S=C=NCCc1ccccc1", "result": 79000, "unit": "M⁻¹ s⁻¹"}]}, {"substance": "PtGSTU19Y160A (Populus trichocarpa; Y160A)", "values": [{"measurement": "Km", "setting": "[4]; [5]", "result": "534.6 ± 68.1", "unit": "µM"}, {"measurement": "kcat", "setting": "[4]; [5]", "result": "0.050 ± 0.002", "unit": "s⁻¹"}, {"measurement": "kcat/Km", "setting": "[4]; [5]", "result": "0.090 ± 0.004 103M-1.s-1"}]}, {"substance": "PtGSTU19Y160C (Populus trichocarpa; Y160C)", "values": [{"measurement": "Km", "setting": "[4]; [6]", "result": "518.3 ± 57.6", "unit": "µM"}, {"measurement": "kcat", "setting": "[4]; [6]", "result": "0.050 ± 0.002", "unit": "s⁻¹"}, {"measurement": "kcat/Km", "setting": "[4]; [6]", "result": "0.100 ± 0.003 103M-1.s-1"}]}, {"substance": "PtGSTU19Y160F (Populus trichocarpa; Y160F)", "values": [{"measurement": "Km", "setting": "[4]; [7]", "result": "693.2 ± 63.8", "unit": "µM"}, {"measurement": "kcat", "setting": "[4]; [7]", "result": "0.050 ± 0.002", "unit": "s⁻¹"}, {"measurement": "kcat/Km", "setting": "[4]; [7]", "result": "0.080 ± 0.003 103M-1.s-1"}]}, {"substance": "PtGSTU20 (Populus trichocarpa)", "values": [{"measurement": "Km", "setting": "CCCCCC(O)C=CC=O", "result": "30.6 ± 3.5", "unit": "µM"}, {"measurement": "kcat", "setting": "CCCCCC(O)C=CC=O", "result": 0.11, "unit": "s⁻¹"}, {"measurement": "kcat/Km", "setting": "CCCCCC(O)C=CC=O", "result": 3600, "unit": "M⁻¹ s⁻¹"}, {"measurement": "Km", "setting": "[3]", "result": "329.2 ± 28.1", "unit": "µM"}, {"measurement": "kcat", "setting": "[3]", "result": "0.02 ± 0.001", "unit": "s⁻¹"}, {"measurement": "kcat/Km", "setting": "[3]", "result": "60 ± 3", "unit": "M⁻¹ s⁻¹"}, {"measurement": "Km", "setting": "S=C=NCc1ccccc1", "result": "149.6 ± 17.6", "unit": "µM"}, {"measurement": "kcat", "setting": "S=C=NCc1ccccc1", "result": "10.4 ± 0.3", "unit": "s⁻¹"}, {"measurement": "kcat/Km", "setting": "S=C=NCc1ccccc1", "result": "69800 ± 2200", "unit": "M⁻¹ s⁻¹"}, {"measurement": "Km", "setting": "S=C=NCCc1ccccc1", "result": "56.8 ± 4.1", "unit": "µM"}, {"measurement": "kcat", "setting": "S=C=NCCc1ccccc1", "result": 5.1, "unit": "s⁻¹"}, {"measurement": "kcat/Km", "setting": "S=C=NCCc1ccccc1", "result": 88900, "unit": "M⁻¹ s⁻¹"}]}, {"substance": "PtGSTU20C160Y (Populus trichocarpa; C160Y)", "values": [{"measurement": "Km", "setting": "[4]; [8]", "result": "326.2 ± 67.6", "unit": "µM"}, {"measurement": "kcat", "setting": "[4]; [8]", "result": "0.020 ± 0.001", "unit": "s⁻¹"}, {"measurement": "kcat/Km", "setting": "[4]; [8]", "result": "0.060 ± 0.003 103M-1.s-1"}]}]}
